B1: TFCP2 (protein, UniProt Q12800 1-502, looked up)
Alpha-globin transcription …: MAWALKLPLADEVIESGLVQDFDASLSGIGQELGAGAYSMSDVLALPIFKQEESSLPPDNENKILPFQYVLCAATSPAVKLHDETLTYLNQGQSYEIRMLDNRKLGELPEINGKLVKSIFRVVFHDRRLQYTEHQQLEGWRWNRPGDRILDIDIPMSVGIIDPRANPTQLNTVEFLWDPAKRTSVFIQVHCISTEFTMRKHGGEKGVPFRVQIDTFKENENGEYTEHLHSASCQIKVFKPKGADRKQKTDREKMEKRTPHEKEKYQPSYETTILTECSPWPEITYVNNSPSPGFNSSHSSFSLGEGNGSPNHQPEPPPPVTDNLLPTTTPQEAQQWLHRNRFSTFTRLFTNFSGADLLKLTRDDVIQICGPADGIRLFNALKGRMVRPRLTIYVCQESLQLREQQQQQQQQQQKHEDGDSNGTFFVYHAIYLEELTAVELTEKIAQLFSISPCQISQIYKQGPTGIHVLISDEMIQNFQEEACFILDTMKAETNDSYHIILK
B2: KIFC3 (protein, UniProt Q9BVG8 1-833, looked up)
Kinesin-like protein KIFC3: MVPSRRTWNLGATPSLRGLWRVGRAPEPEPGMARPAPAPASPAARPFPHTGPGRLRTGRGKDTPVCGDEDSSARSAARPALAQCRALSVDWAGPGSPHGLYLTLQVEHLKEKLISQAQEVSRLRSELGGTDLEKHRDLLMVENERLRQEMRRCEAELQELRTKPAGPCPGCEHSQESAQLRDKLSQLQLEMAESKGMLSELNLEVQQKTDRLAEVELRLKDCLAEKAQEEERLSRRLRDSHETIASLRAQSPPVKYVIKTVEVESSKTKQALSESQARNQHLQEQVAMQRQVLKEMEQQLQSSHQLTARLRAQIAMYESELERAHGQMLEEMQSLEEDKNRAIEEAFARAQVEMKAVHENLAGVRTNLLTLQPALRTLTNDYNGLKRQVRGFPLLLQEALRSVKAEIGQAIEEVNSNNQELLRKYRRELQLRKKCHNELVRLKGNIRVIARVRPVTKEDGEGPEATNAVTFDADDDSIIHLLHKGKPVSFELDKVFSPQASQQDVFQEVQALVTSCIDGFNVCIFAYGQTGAGKTYTMEGTAENPGINQRALQLLFSEVQEKASDWEYTITVSAAEIYNEVLRDLLGKEPQEKLEIRLCPDGSGQLYVPGLTEFQVQSVDDINKVFEFGHTNRTTEFTNLNEHSSRSHALLIVTVRGVDCSTGLRTTGKLNLVDLAGSERVGKSGAEGSRLREAQHINKSLSALGDVIAALRSRQGHVPFRNSKLTYLLQDSLSGDSKTLMVVQVSPVEKNTSETLYSLKFAERVRSVELGPGLRRAELGSWSSQEHLEWEPACQTPQPSARAHSAPSSGTSSRPGSIRRKLQPSGKSRPLPV
B3: SMC3 (protein, UniProt Q9UQE7 1-1217, looked up)
Structural maintenance of …: MYIKQVIIQGFRSYRDQTIVDPFSSKHNVIVGRNGSGKSNFFYAIQFVLSDEFSHLRPEQRLALLHEGTGPRVISAFVEIIFDNSDNRLPIDKEEVSLRRVIGAKKDQYFLDKKMVTKNDVMNLLESAGFSRSNPYYIVKQGKINQMATAPDSQRLKLLREVAGTRVYDERKEESISLMKETEGKREKINELLKYIEERLHTLEEEKEELAQYQKWDKMRRALEYTIYNQELNETRAKLDELSAKRETSGEKSRQLRDAQQDARDKMEDIERQVRELKTKISAMKEEKEQLSAERQEQIKQRTKLELKAKDLQDELAGNSEQRKRLLKERQKLLEKIEEKQKELAETEPKFNSVKEKEERGIARLAQATQERTDLYAKQGRGSQFTSKEERDKWIKKELKSLDQAINDKKRQIAAIHKDLEDTEANKEKNLEQYNKLDQDLNEVKARVEELDRKYYEVKNKKDELQSERNYLWREENAEQQALAAKREDLEKKQQLLRAATGKAILNGIDSINKVLDHFRRKGINQHVQNGYHGIVMNNFECEPAFYTCVEVTAGNRLFYHIVDSDEVSTKILMEFNKMNLPGEVTFLPLNKLDVRDTAYPETNDAIPMISKLRYNPRFDKAFKHVFGKTLICRSMEVSTQLARAFTMDCITLEGDQVSHRGALTGGYYDTRKSRLELQKDVRKAEEELGELEAKLNENLRRNIERINNEIDQLMNQMQQIETQQRKFKASRDSILSEMKMLKEKRQQSEKTFMPKQRSLQSLEASLHAMESTRESLKAELGTDLLSQLSLEDQKRVDALNDEIRQLQQENRQLLNERIKLEGIITRVETYLNENLRKRLDQVEQELNELRETEGGTVLTATTSELEAINKRVKDTMARSEDLDNSIDKTEAGIKELQKSMERWKNMEKEHMDAINHDTKELEKMTNRQGMLLKKKEECMKKIRELGSLPQEAFEKYQTLSLKQLFRKLEQCNTELKKYSHVNKKALDQFVNFSEQKEKLIKRQEELDRGYKSIMELMNVLELRKYEAIQLTFKQVSKNFSEVFQKLVPGGKATLVMKKGDVEGSQSQDEGEGSGESERGSGSQSSVPSVDQFTGVGIRVSFTGKQGEMREMQQLSGGQKSLVALALIFAIQKCDPAPFYLFDEIDQALDAQHRKAVSDMIMELAVHAQFITTTFRPELLESADKFYGVKFRNKVSHIDVITAEMAKDFVEDDTTHG
B4: MYO1E (protein, UniProt Q12965 1-1108, looked up)
Unconventional myosin-Ie: MGSKGVYQYHWQSHNVKHSGVDDMVLLSKITENSIVENLKKRYMDDYIFTYIGSVLISVNPFKQMPYFGEKEIEMYQGAAQYENPPHIYALADNMYRNMIIDRENQCVIISGESGAGKTVAAKYIMSYISRVSGGGTKVQHVKDIILQSNPLLEAFGNAKTVRNNNSSRFGKYFEIQFSPGGEPDGGKISNFLLEKSRVVMRNPGERSFHIFYQLIEGASAEQKHSLGITSMDYYYYLSLSGSYKVDDIDDRREFQETLHAMNVIGIFAEEQTLVLQIVAGILHLGNISFKEVGNYAAVESEEFLAFPAYLLGINQDRLKEKLTSRQMDSKWGGKSESIHVTLNVEQACYTRDALAKALHARVFDFLVDSINKAMEKDHEEYNIGVLDIYGFEIFQKNGFEQFCINFVNEKLQQIFIELTLKAEQEEYVQEGIRWTPIEYFNNKIVCDLIENKVNPPGIMSILDDVCATMHAVGEGADQTLLQKLQMQIGSHEHFNSWNQGFIIHHYAGKVSYDMDGFCERNRDVLFMDLIELMQSSELPFIKSLFPENLQADKKGRPTTAGSKIKKQANDLVSTLMKCTPHYIRCIKPNETKKPRDWEESRVKHQVEYLGLKENIRVRRAGYAYRRIFQKFLQRYAILTKATWPSWQGEEKQGVLHLLQSVNMDSDQFQLGRSKVFIKAPESLFLLEEMRERKYDGYARVIQKSWRKFVARKKYVQMREEASDLLLNKKERRRNSINRNFIGDYIGMEEHPELQQFVGKREKIDFADTVTKYDRRFKGVKRDLLLTPKCLYLIGREKVKQGPDKGLVKEVLKRKIEIERILSVSLSTMQDDIFILHEQEYDSLLESVFKTEFLSLLAKRYEEKTQKQLPLKFSNTLELKLKKENWGPWSAGGSRQVQFHQGFGDLAVLKPSNKVLQVSIGPGLPKNSRPTRRNTTQNTGYSSGTQNANYPVRAAPPPPGYHQNGVIRNQYVPYPHAPGSQRSNQKSLYTSMARPPLPRQQSTSSDRVSQTPESLDFLKVPDQGAAGVRRQTTSRPPPAGGRPKPQPKPKPQVPQCKALYAYDAQDTDELSFNANDIIDIIKEDPSGWWTGRLRGKQGLFPNNYVTKI
B5: DSG2 (protein, UniProt Q14126 50-1118, looked up)
Desmoglein-2: AWITAPVALREGEDLSKKNPIAKIHSDLAEERGLKITYKYTGKGITEPPFGIFVFNKDTGELNVTSILDREETPFFLLTGYALDARGNNVEKPLELRIKVLDINDNEPVFTQDVFVGSVEELSAAHTLVMKINATDADEPNTLNSKISYRIVSLEPAYPPVFYLNKDTGEIYTTSVTLDREEHSSYTLTVEARDGNGEVTDKPVKQAQVQIRILDVNDNIPVVENKVLEGMVEENQVNVEVTRIKVFDADEIGSDNWLANFTFASGNEGGYFHIETDAQTNEGIVTLIKEVDYEEMKNLDFSVIVANKAAFHKSIRSKYKPTPIPIKVKVKNVKEGIHFKSSVISIYVSESMDRSSKGQIIGNFQAFDEDTGLPAHARYVKLEDRDNWISVDSVTSEIKLAKLPDFESRYVQNGTYTVKIVAISEDYPRKTITGTVLINVEDINDNCPTLIEPVQTICHDAEYVNVTAEDLDGHPNSGPFSFSVIDKPPGMAEKWKIARQESTSVLLQQSEKKLGRSEIQFLISDNQGFSCPEKQVLTLTVCECLHGSGCREAQHDSYVGLGPAAIALMILAFLLLLLVPLLLLMCHCGKGAKGFTPIPGTIEMLHPWNNEGAPPEDKVVPSFLPVDQGGSLVGRNGVGGMAKEATMKGSSSASIVKGQHEMSEMDGRWEEHRSLLSGRATQFTGATGAIMTTETTKTARATGASRDMAGAQAAAVALNEEFLRNYFTDKAASYTEEDENHTAKDCLLVYSQEETESLNASIGCCSFIEGELDDRFLDDLGLKFKTLAEVCLGQKIDINKEIEQRQKPATETSMNTASHSLCEQTMVNSENTYSSGSSFPVPKSLQEANAEKVTQEIVTERSVSSRQAQKVATPLPDPMASRNVIATETSYVTGSTMPPTTVILGPSQPQSLIVTERVYAPASTLVDQPYANEGTVVVTERVIQPHGGGSNPLEGTQHLQDVPYVMVRERESFLAPSSGVQPTLAMPNIAVGQNVTVTERVLAPASTLQSSYQIPTENSMTARNTTVSGAGVPGPLPDFGLEESGHSNSTITTSSTRVTKHSTVQHSYS
B6: GEMIN8 (protein, UniProt Q9NWZ8 1-242, looked up)
Gem-associated protein 8: MAAVKASTSKATRPWYSHPVYARYWQHYHQAMAWMQSHHNAYRKAVESCFNLPWYLPSALLPQSSYDNEAAYPQSFYDHHVAWQDYPCSSSHFRRSGQHPRYSSRIQASTKEDQALSKEEEMETESDAEVECDLSNMEITEELRQYFAETERHREERRRQQQLDAERLDSYVNADHDLYCNTRRSVEAPTERPGERRQAEMKRLYGDSAAKIQAMEAAVQLSFDKHCDRKQPKYWPVIPLKF
B7: LSM12 (protein, UniProt Q3MHD2 2-195, looked up)
Protein LSM12: AAPPGEYFSVGSQVSCRTCQEQRLQGEVVAFDYQSKMLALKCPSSSGKPNHADILLINLQYVSEVEIINDRTETPPPLASLNVSKLASKARTEKEEKLSQAYAISAGVSLEGQQLFQTIHKTIKDCKWQEKNIVVMEEVVITPPYQVENCKGKEGSALSHVRKIVEKHFRDVESQKILQRSQAQQPQKEAALSS

Tested on: GFP-14-3-3β
Experiment: GFP-14-3-3β co-IP with LC-MS/MS, untreated GFP-14-3-3β versus GFP control (14-3-3 interactome)
Assay type: binding, human
Details: GFP-14-3-3β co-IP LC-MS/MS; untreated vs GFP; student's t-test; label-free quantification, 3 replicates each

First: B1
Second: B2
The “Difference (log2), untreated vs GFP” value of the first is lower: 0.6477 log2 for the first, 1.361 log2 for the second.

Going from B3 to B4, the “Difference (log2), untreated vs GFP” value rises from 0.1297 log2 to 1.374 log2.

Going from B5 to B6, the “Difference (log2), untreated vs GFP” value rises from -0.9434 log2 to 0.1049 log2.

Same assay, conditions: log2 difference; pairwise comparison untreated vs GFP, label-free quantification, 3 replicates each

With B7 the “Difference (log2), untreated vs GFP” value was 1.227.

Tested on: GFP-14-3-3β and its binding proteins
Experiment: GFP-14-3-3β co-IP with LC-MS/MS label-free quantification, untreated versus PP1c-treated
Set-up: species or system human
Details: GFP-14-3-3β co-IP LC-MS/MS; PP1 vs untreated; student's t-test; label-free quantification, 3 replicates each

Compared with B1, B2 is higher in “Difference (log2), PP1 vs untreated” value: -0.2131 log2 for the first, -0.1977 log2 for the second.

Going from B3 to B4, the “Difference (log2), PP1 vs untreated” value falls from -0.1648 log2 to -0.1954 log2.

First: B5
Second: B6
The “Difference (log2), PP1 vs untreated” value of the first is higher: -0.1595 log2 for the first, -0.2137 log2 for the second.

Same assay, conditions: log2 difference; pairwise comparison PP1 vs untreated, label-free quantification, 3 replicates each

B7 was tested, and the “Difference (log2), PP1 vs untreated” value was 1.729.
